Assay results from patent US20200223889A1 (Novo Nordisk, published 2020).
Positions of bridges follow the written chain, without caps; N, C: chain ends. Non-standard residues stand in square brackets, D forms with d. 1Nal = N[C@@H](Cc1cccc2ccccc12)C(=O)O; Hyp = O=C(O)[C@@H]1C[C@@H](O)CN1; Thz = O=C(O)[C@@H]1CSCN1; Aib = CC(C)(N)C(=O)O; Sar = CNCC(=O)O

Experiments:
[1] = molecular target: T1, human melanocortin 4 receptor (human, UniProt P32245 1-332); test: cell-based or functional assay
[2] = molecular target: human melanocortin 1 receptor (human, UniProt Q01726 1-317); test: cell-based or functional assay
Sequence of human melanocortin 1 receptor (Q01726 whole entry): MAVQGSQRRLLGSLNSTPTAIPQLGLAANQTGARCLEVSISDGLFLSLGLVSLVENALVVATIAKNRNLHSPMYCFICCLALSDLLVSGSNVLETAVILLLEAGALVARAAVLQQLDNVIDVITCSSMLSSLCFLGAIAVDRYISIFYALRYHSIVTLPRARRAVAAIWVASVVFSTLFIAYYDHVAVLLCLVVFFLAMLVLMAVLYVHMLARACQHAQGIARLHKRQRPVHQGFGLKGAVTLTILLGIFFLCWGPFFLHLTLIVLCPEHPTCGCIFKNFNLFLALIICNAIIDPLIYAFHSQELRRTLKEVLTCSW

[3] = molecular target: T1, human melanocortin 4 receptor; test: competition with 125-NDP-α-MSH, BHK human MC4R membranes
Procedure: In order to assess the binding affinity of the selected compounds for the human MC4R competitive binding assays was performed with radiolabeled NDP-alpha MSH (¹²⁵NDP-α-MSH).
The assay was performed in 96-well filterplates (Unifilter) using BHK cells stably expressing the human MC4 receptor.
The BHK cell membranes were prepared from frozen or fresh cells that were homogenized in 20 mM HEPES pH 7.1, 5 mM MgCl₂, 1 mg/ml bacitracin (buffer 1) and centrifuged at 15000 rpm at 4° C., 10 min in a Sorvall RC 5B plus, SS-34 rotor. The supernatant was discarded, and the pellets were re-suspended in buffer 1, homogenized and centrifuged two more times. The final pellets were re-suspended in buffer 1 and the protein concentration was measured and adjusted with buffer 1 to 5 mg/ml and the membrane preparation was kept at −80° C. until assay. The assay was run on a dilution of this cell membrane suspension without any further preparation. The suspension was diluted to give maximally 10% specific binding, i.e. to approx. 50-100 fold dilution, optimized after each membrane preparation. The assay was performed in a total volume of 200 μl: 50 μl of cell suspension, 50 μl of ¹²⁵NDP-α-MSH (apx. […] in final concentration), 50 μl of test compound and 50 μl binding buffer were mixed and incubated for 2 h at 25° C. (binding buffer: 25 mM HEPES, pH 7.0, 1 mM CaCl₂), 1 mM MgSO₄, 1 mM EGTA, 0.005% Tween™ 20 and 0.1% HSA or, alternatively, 0.1% ovalbumin (Sigma; catalogue No. A-5503)). Test compounds were dissolved in 100% DMSO and diluted in binding buffer in a dose range from 1 μM to 0.001 nM. Radiolabelled ligand and membranes were diluted in binding buffer. The incubation was stopped by dilution with 8×100 μl ice-cold 0.9% NaCl. The radioactivity retained on the filters was counted using a Packard Topcounter. The data were analysed by non-linear regression analysis of binding curves, using the Windows™ program GraphPad™ Prism (GraphPad Software, USA).

T1 sequence (P32245 whole entry): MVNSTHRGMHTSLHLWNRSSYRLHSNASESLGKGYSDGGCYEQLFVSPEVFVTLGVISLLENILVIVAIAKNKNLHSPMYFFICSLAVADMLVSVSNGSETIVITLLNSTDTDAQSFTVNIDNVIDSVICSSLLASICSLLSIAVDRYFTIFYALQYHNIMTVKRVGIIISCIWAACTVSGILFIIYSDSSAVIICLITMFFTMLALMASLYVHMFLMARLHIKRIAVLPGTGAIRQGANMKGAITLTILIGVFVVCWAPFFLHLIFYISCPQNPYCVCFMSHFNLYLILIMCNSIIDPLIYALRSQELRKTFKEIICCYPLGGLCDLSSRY

B1: Chem. 77 (peptide)
peptide: cyclo(CKH[dF]HWCKKKKW)
modifications: disulfide 1-7
SMILES: NCCCC[C@@H]1NC(=O)[C@H](CCCCN)NC(=O)[C@H](CCCCN)NC(=O)[C@@H]2CSSC[C@H](NC(=O)[C@H](Cc3c[nH]c4ccccc34)NC(=O)[C@H](CCCCN)NC1=O)C(=O)N[C@@H](CCCCN)C(=O)N[C@@H](Cc1c[nH]cn1)C(=O)N[C@H](Cc1ccccc1)C(=O)N[C@@H](Cc1c[nH]cn1)C(=O)N[C@@H](Cc1c[nH]c3ccccc13)C(=O)N2
notes: also called c[c[Cys-Lys-His-D-Phe-His-Trp-Cys]-Lys-Lys-Lys-Lys-Trp]
- MC4R cAMP EC50 [1]: 0.46 nM
- MC1R cAMP EC50 [2]: 49.8 nM
- Ki [3]: 0.72 nM

B2: Chem. 78 (peptide)
peptide: cyclo(CKH[dF]HWCAKKKR)
modifications: disulfide 1-7
SMILES: C[C@@H]1NC(=O)[C@@H]2CSSC[C@H](NC(=O)[C@H](CCCNC(=N)N)NC(=O)[C@H](CCCCN)NC(=O)[C@H](CCCCN)NC(=O)[C@H](CCCCN)NC1=O)C(=O)N[C@@H](CCCCN)C(=O)N[C@@H](Cc1c[nH]cn1)C(=O)N[C@H](Cc1ccccc1)C(=O)N[C@@H](Cc1c[nH]cn1)C(=O)N[C@@H](Cc1c[nH]c3ccccc13)C(=O)N2
notes: also called c[c[Cys-Lys-His-D-Phe-His-Trp-Cys]-Ala-Lys-Lys-Lys-Arg]
- MC4R cAMP EC50 [1]: 0.04 nM
- MC1R cAMP EC50 [2]: 3.8 nM
- Ki [3]: 0.02 nM

B3: Chem. 84 (peptide)
peptide: cyclo(C[dK]H[dF]HWCAKKKW)
modifications: disulfide 1-7
SMILES: C[C@@H]1NC(=O)[C@@H]2CSSC[C@H](NC(=O)[C@H](Cc3c[nH]c4ccccc34)NC(=O)[C@H](CCCCN)NC(=O)[C@H](CCCCN)NC(=O)[C@H](CCCCN)NC1=O)C(=O)N[C@H](CCCCN)C(=O)N[C@@H](Cc1c[nH]cn1)C(=O)N[C@H](Cc1ccccc1)C(=O)N[C@@H](Cc1c[nH]cn1)C(=O)N[C@@H](Cc1c[nH]c3ccccc13)C(=O)N2
notes: also called c[c[Cys-D-Lys-His-D-Phe-His-Trp-Cys]-Ala-Lys-Lys-Lys-Trp]
- MC4R cAMP EC50 [1]: 0.59 nM
- MC1R cAMP EC50 [2]: 43.4 nM
- Ki [3]: 0.19 nM

B4: Chem. 95 (peptide)
peptide: cyclo(CPH[dF]HWCAKKHR)
modifications: disulfide 1-7
SMILES: C[C@@H]1NC(=O)[C@@H]2CSSC[C@H](NC(=O)[C@H](CCCNC(=N)N)NC(=O)[C@H](Cc3c[nH]cn3)NC(=O)[C@H](CCCCN)NC(=O)[C@H](CCCCN)NC1=O)C(=O)N1CCC[C@H]1C(=O)N[C@@H](Cc1c[nH]cn1)C(=O)N[C@H](Cc1ccccc1)C(=O)N[C@@H](Cc1c[nH]cn1)C(=O)N[C@@H](Cc1c[nH]c3ccccc13)C(=O)N2
notes: also called c[c[Cys-Pro-His-D-Phe-His-Trp-Cys]-Ala-Lys-Lys-His-Arg]
- MC4R cAMP EC50 [1]: 0.22 nM
- MC1R cAMP EC50 [2]: 87.7 nM
- Ki [3]: 0.07 nM

B5: Chem. 96 (peptide)
peptide: cyclo(CPH[dF]HWCAHKKR)
modifications: disulfide 1-7
SMILES: C[C@@H]1NC(=O)[C@@H]2CSSC[C@H](NC(=O)[C@H](CCCNC(=N)N)NC(=O)[C@H](CCCCN)NC(=O)[C@H](CCCCN)NC(=O)[C@H](Cc3c[nH]cn3)NC1=O)C(=O)N1CCC[C@H]1C(=O)N[C@@H](Cc1c[nH]cn1)C(=O)N[C@H](Cc1ccccc1)C(=O)N[C@@H](Cc1c[nH]cn1)C(=O)N[C@@H](Cc1c[nH]c3ccccc13)C(=O)N2
notes: also called c[c[Cys-Pro-His-D-Phe-His-Trp-Cys]-Ala-His-Lys-Lys-Arg]
- MC4R cAMP EC50 [1]: 0.04 nM
- MC1R cAMP EC50 [2]: 57.7 nM
- Ki [3]: 0.04 nM

B6: Chem. 58 (peptide)
peptide: cyclo(CAH[dF]K(Ac)WCAK[dK]KW)
modifications: disulfide 1-7
SMILES: CC(=O)NCCCC[C@@H]1NC(=O)[C@@H](Cc2ccccc2)NC(=O)[C@H](Cc2c[nH]cn2)NC(=O)[C@H](C)NC(=O)[C@@H]2CSSC[C@H](NC(=O)[C@H](Cc3c[nH]c4ccccc34)NC1=O)C(=O)N[C@@H](C)C(=O)N[C@@H](CCCCN)C(=O)N[C@H](CCCCN)C(=O)N[C@@H](CCCCN)C(=O)N[C@@H](Cc1c[nH]c3ccccc13)C(=O)N2
notes: also called c[c[Cys-Ala-His-D-Phe-AcLys-Trp-Cys]-Ala-Lys-D-Lys-Lys-Trp]
- MC4R cAMP EC50 [1]: 0.11 nM
- MC1R cAMP EC50 [2]: 3.93 nM
- Ki [3]: 0.09 nM

B7: Chem. 61 (peptide)
peptide: cyclo(C[Aib]H[dF]HWCAKKKW)
modifications: disulfide 1-7
SMILES: C[C@@H]1NC(=O)[C@@H]2CSSC[C@H](NC(=O)[C@H](Cc3c[nH]c4ccccc34)NC(=O)[C@H](CCCCN)NC(=O)[C@H](CCCCN)NC(=O)[C@H](CCCCN)NC1=O)C(=O)NC(C)(C)C(=O)N[C@@H](Cc1c[nH]cn1)C(=O)N[C@H](Cc1ccccc1)C(=O)N[C@@H](Cc1c[nH]cn1)C(=O)N[C@@H](Cc1c[nH]c3ccccc13)C(=O)N2
notes: also called c[c[Cys-Aib-His-D-Phe-His-Trp-Cys]-Ala-Lys-Lys-Lys-Trp]
- MC4R cAMP EC50 [1]: 0.31 nM
- MC1R cAMP EC50 [2]: > 1 nM
- Ki [3]: 0.22 nM

B8: Chem. 74 (peptide)
peptide: cyclo(C[Sar]H[dF]HWCAKKKR)
modifications: disulfide 1-7
SMILES: C[C@@H]1NC(=O)[C@@H]2CSSC[C@H](NC(=O)[C@H](CCCNC(=N)N)NC(=O)[C@H](CCCCN)NC(=O)[C@H](CCCCN)NC(=O)[C@H](CCCCN)NC1=O)C(=O)N(C)CC(=O)N[C@@H](Cc1c[nH]cn1)C(=O)N[C@H](Cc1ccccc1)C(=O)N[C@@H](Cc1c[nH]cn1)C(=O)N[C@@H](Cc1c[nH]c3ccccc13)C(=O)N2
notes: also called c[c[Cys-Sar-His-D-Phe-His-Trp-Cys]-Ala-Lys-Lys-Lys-Arg]
- MC4R cAMP EC50 [1]: 0.29 nM
- MC1R cAMP EC50 [2]: > 5.5 nM
- Ki [3]: 0.08 nM

B9: Chem. 97 (peptide)
peptide: cyclo(C[Hyp]H[dF]HWCAKKKR)
modifications: disulfide 1-7
SMILES: C[C@@H]1NC(=O)[C@@H]2CSSC[C@H](NC(=O)[C@H](CCCNC(=N)N)NC(=O)[C@H](CCCCN)NC(=O)[C@H](CCCCN)NC(=O)[C@H](CCCCN)NC1=O)C(=O)N1C[C@H](O)C[C@H]1C(=O)N[C@@H](Cc1c[nH]cn1)C(=O)N[C@H](Cc1ccccc1)C(=O)N[C@@H](Cc1c[nH]cn1)C(=O)N[C@@H](Cc1c[nH]c3ccccc13)C(=O)N2
notes: also called c[c[Cys-Hyp-His-D-Phe-His-Trp-Cys]-Ala-Lys-Lys-Lys-Arg]
- MC4R cAMP EC50 [1]: 0.19 nM
- MC1R cAMP EC50 [2]: 23.1 nM
- Ki [3]: 0.05 nM

B10: Chem. 100 (peptide)
peptide: cyclo(C[Thz]H[dF]HWCAKKKR)
modifications: disulfide 1-7
SMILES: C[C@@H]1NC(=O)[C@@H]2CSSC[C@H](NC(=O)[C@H](CCCNC(=N)N)NC(=O)[C@H](CCCCN)NC(=O)[C@H](CCCCN)NC(=O)[C@H](CCCCN)NC1=O)C(=O)N1CSC[C@H]1C(=O)N[C@@H](Cc1c[nH]cn1)C(=O)N[C@H](Cc1ccccc1)C(=O)N[C@@H](Cc1c[nH]cn1)C(=O)N[C@@H](Cc1c[nH]c3ccccc13)C(=O)N2
notes: also called c[c[Cys-THAZ-His-D-Phe-His-Trp-Cys]-Ala-Lys-Lys-Lys-Arg]
- MC4R cAMP EC50 [1]: 0.02 nM
- MC1R cAMP EC50 [2]: 18.5 nM
- Ki [3]: 0.04 nM

B11: Chem. 109 (peptide)
peptide: cyclo(C[Thz]H[dF]HWCAAKAW)
modifications: disulfide 1-7
SMILES: C[C@@H]1NC(=O)[C@H](C)NC(=O)[C@@H]2CSSC[C@H](NC(=O)[C@H](Cc3c[nH]c4ccccc34)NC(=O)[C@H](C)NC(=O)[C@H](CCCCN)NC1=O)C(=O)N1CSC[C@H]1C(=O)N[C@@H](Cc1c[nH]cn1)C(=O)N[C@H](Cc1ccccc1)C(=O)N[C@@H](Cc1c[nH]cn1)C(=O)N[C@@H](Cc1c[nH]c3ccccc13)C(=O)N2
notes: also called c[c[Cys-THAZ-His-D-Phe-His-Trp-Cys]-Ala-Ala-Lys-Ala-Trp]
- MC4R cAMP EC50 [1]: 0.15 nM
- MC1R cAMP EC50 [2]: > 7 nM
- Ki [3]: 0.3 nM

B12: Chem. 110 (peptide)
peptide: cyclo(C[Thz]H[dF]HWCAKKAW)
modifications: disulfide 1-7
SMILES: C[C@@H]1NC(=O)[C@H](CCCCN)NC(=O)[C@H](CCCCN)NC(=O)[C@H](C)NC(=O)[C@@H]2CSSC[C@H](NC(=O)[C@H](Cc3c[nH]c4ccccc34)NC1=O)C(=O)N1CSC[C@H]1C(=O)N[C@@H](Cc1c[nH]cn1)C(=O)N[C@H](Cc1ccccc1)C(=O)N[C@@H](Cc1c[nH]cn1)C(=O)N[C@@H](Cc1c[nH]c3ccccc13)C(=O)N2
notes: also called c[c[Cys-THAZ-His-D-Phe-His-Trp-Cys]-Ala-Lys-Lys-Ala-Trp]
- MC4R cAMP EC50 [1]: 0.05 nM
- MC1R cAMP EC50 [2]: 63.3 nM
- Ki [3]: 0.09 nM

B13: Chem. 63 (peptide)
peptide: XAHFRWCAHXRW
modifications: Pen 1; D-Phe 4, 10; disulphide Pen1-Cys7; head-to-tail amide Pen1-Trp12
notes: also called c[c[Pen-Ala-His-D-Phe-Arg-Trp-Cys]-Ala-His-D-Phe-Arg-Trp]
- MC4R cAMP EC50 [1]: 0.02 nM
- MC1R cAMP EC50 [2]: 0.84 nM
- Ki [3]: 0.08 nM

B14: Chem. 64 (peptide)
peptide: cyclo(CAH[dF]R[1Nal]CAKKKW)
modifications: disulfide 1-7
SMILES: C[C@@H]1NC(=O)[C@@H]2CSSC[C@H](NC(=O)[C@H](Cc3cccc4ccccc34)NC(=O)[C@H](CCCNC(=N)N)NC(=O)[C@@H](Cc3ccccc3)NC(=O)[C@H](Cc3c[nH]cn3)NC1=O)C(=O)N[C@@H](C)C(=O)N[C@@H](CCCCN)C(=O)N[C@@H](CCCCN)C(=O)N[C@@H](CCCCN)C(=O)N[C@@H](Cc1c[nH]c3ccccc13)C(=O)N2
notes: also called c[c[Cys-Ala-His-D-Phe-Arg-1-Nal-Cys]-Ala-Lys-Lys-Lys-Trp]
- MC4R cAMP EC50 [1]: 0.03 nM
- MC1R cAMP EC50 [2]: 4.23 nM
- Ki [3]: 0.09 nM
